Measurements: patent US20210230272A1

Key:
[1] = molecular target: IL10 antibody (Sino biological, Cat #SEKA10947); assay: ELISA, same conditions as the antigen-coated ELISA
[2] = molecular target: human PD-L1 (human) (UniProt Q9NZQ7); assay: ELISA, PD-L1 coated; control of LB319
[3] = molecular target: human PD-L1 (human) (UniProt Q9NZQ7); assay: ELISA, PD-L1 coated; control of LB320
[4] = molecular target: mice CLDN18.2 (mice) (UniProt P56857); assay: cell ELISA, mCLDN18.2+ cells
[5] = molecular target: human CLDN18.2 (human) (UniProt P56856); assay: flow cytometry, CF488 labeled antibody 1 µg/ml, hCLDN18.2+ cells
[6] = molecular target: human CLDN18.2 (human) (UniProt P56856); assay: flow cytometry, CF633 labeled antibody 1 µg/ml, hCLDN18.2+ cells
[7] = molecular target: human CLDN18.2 (human) (UniProt P56856); assay: flow cytometry, CF488 labeled antibody 10 µg/ml, hCLDN18.2+ cells
[8] = molecular target: human CLDN18.2 (human) (UniProt P56856); assay: flow cytometry, CF633 labeled antibody 10 µg/ml, hCLDN18.2+ cells

Sequence of human PD-L1 (human) (Q9NZQ7 19-238): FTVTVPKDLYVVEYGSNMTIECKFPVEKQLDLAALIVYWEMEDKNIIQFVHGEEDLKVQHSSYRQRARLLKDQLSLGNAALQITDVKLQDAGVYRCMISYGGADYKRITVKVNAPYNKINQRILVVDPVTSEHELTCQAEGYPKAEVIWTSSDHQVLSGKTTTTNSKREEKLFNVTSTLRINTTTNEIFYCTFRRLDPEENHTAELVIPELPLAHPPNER

## IL10 (Peprotech, Cat #: 200-10) (from UniProt P22301 19-178) (ligand)
[1]
  EC50: 4.53 nM

## LB318 (Durvalumab) (antibody)
[2]
  EC50: 0.072 nM
[3]
  EC50: 0.072 nM

## Neg IgG (antibody)
[4]
  Emax: 0.19
[5]
  Binding value (FACS fluorescence intensity): 1750
[6]
  Binding value (FACS fluorescence intensity): 23
[7]
  Binding value (FACS fluorescence intensity): 3480
[8]
  Binding value (FACS fluorescence intensity): 23.2
